Where “and” joins values, the source holds several entries; their conditions need not be identical. Equal entries are not always repeated.
Legend:
[1] = target: the molecule itself; assay: crystal structure; vapor diffusion, protein 38 mg/ml; 30% PEG 6000, 1 M lithium chloride, 100 mM sodium acetate; Zn SAD; oligomers from the asymmetric unit and crystal packing
[2] = target: the molecule itself; assay: cross-linking; 5 μg purified B1 with 0.05, 0.1, 0.2% (w/v) glutaraldehyde, on ice 30 min, 20 mM Hepes pH 7.4; 8–16% SDS-PAGE, coomassie
[3] = target: the molecule itself; assay: AUC; sedimentation velocity of the gel filtration peaks; Beckman XL-1, 130,000 g, 20 °C, >12 h; 20 mM Tris, pH 8.0, 100 mM NaCl; SEDFIT continuous c(s) model
[4] = target: the molecule itself; assay: cross-linking; 0.3 μg purified HA-PML(1–256) with increasing glutaraldehyde, on ice 30 min, 20 mM Hepes pH 7.4; 4–12% SDS-PAGE, anti-HA immunoblot
[5] = target: the molecule itself; assay: SEC; gel filtration on a calibrated Superdex 200 column; 20 mM Tris, pH 8.0, 100 mM NaCl

B1: PML B1-box, residues 120-168, wild type (domain or fragment, UniProt P29590 120-168, looked up)
chain: RQIVDAQAVCTRCKESADFWCFECEQLLCAKCFEAHQWFLKHEARPLAE
notes: PML (TRIM19) B1-box, residues 120-168; residues 120-167 are seen in the crystallographic monomer; Four molecules in the asymmetric unit; also called WT B1; source: E. coli BL21 (DE3), purified (His-Trap, thrombin, Q, Phenyl, S100); not shown: His tag, N-terminal, cleaved
binding result [1]: binds

B2: PML B1-box I122P/V123P (domain or fragment, UniProt P29590 120-168, looked up)
chain: RQPPDAQAVCTRCKESADFWCFECEQLLCAKCFEAHQWFLKHEARPLAE
notes: PML (TRIM19) B1-box, residues 120-168, double mutant I122P/V123P; PDB 6IMQ holds the wild-type parent; source: E. coli BL21 (DE3), purified (His-Trap, thrombin, Q, Phenyl, S100); not shown: His tag, N-terminal, cleaved
binding result [2]: binds

B3: PML_(1–256) I122P/V123P (domain or fragment, UniProt P29590-1 1-256, looked up)
chain: MEPAPARSPRPQQDPARPQEPTMPPPETPSEGRQPSPSPSPTERAPASEEEFQFLRCQQCQAEAKCPKLLPCLHTLCSGCLEASGMQCPICQAPWPLGADTPALDNVFFESLQRRLSVYRQPPDAQAVCTRCKESADFWCFECEQLLCAKCFEAHQWFLKHEARPLAELRNQSVREFLDGTRKTNNIFCSNPNHRTPTLTSIYCRGCSKPLCCSCALLDSSHSELKCDISAEIQQRQEELDAMTQALQEQDSAFGA
notes: PML (TRIM19), residues 1-256, double mutant I122P/V123P; source: E. coli BL21 (DE3), purified (His-Trap, thrombin, Q, Phenyl, Superdex 200); not shown: SUMO (human), N-terminal, cleaved; His tag, N-terminal, cleaved
binding result [3]: binds

B4: PML RBCC fragment, residues 1-256 (RING, B1, B2 and a 20-residue coiled-coil), wild type (domain or fragment, UniProt P29590-1 1-256, looked up)
chain: MEPAPARSPRPQQDPARPQEPTMPPPETPSEGRQPSPSPSPTERAPASEEEFQFLRCQQCQAEAKCPKLLPCLHTLCSGCLEASGMQCPICQAPWPLGADTPALDNVFFESLQRRLSVYRQIVDAQAVCTRCKESADFWCFECEQLLCAKCFEAHQWFLKHEARPLAELRNQSVREFLDGTRKTNNIFCSNPNHRTPTLTSIYCRGCSKPLCCSCALLDSSHSELKCDISAEIQQRQEELDAMTQALQEQDSAFGA
notes: PML (TRIM19), residues 1-256: RING, B1-box, B2-box and a 20-residue coiled-coil; His tag lay between SUMO and PML; SUMO-His removed after thrombin digestion; Mixture of monomer, dimer, tetramer and N-mer in solution; also called PML_(1–256); RBCC_(1–256); source: E. coli BL21 (DE3), purified (His-Trap, thrombin, Q, Phenyl, Superdex 200); not shown: SUMO (human), N-terminal, cleaved; His tag, …
stoichiometry N [3]: 2 and 4

B5: HA-PML_(1–256) I122P/V123P (domain or fragment, UniProt P29590-1 1-256, looked up)
chain: MEPAPARSPRPQQDPARPQEPTMPPPETPSEGRQPSPSPSPTERAPASEEEFQFLRCQQCQAEAKCPKLLPCLHTLCSGCLEASGMQCPICQAPWPLGADTPALDNVFFESLQRRLSVYRQPPDAQAVCTRCKESADFWCFECEQLLCAKCFEAHQWFLKHEARPLAELRNQSVREFLDGTRKTNNIFCSNPNHRTPTLTSIYCRGCSKPLCCSCALLDSSHSELKCDISAEIQQRQEELDAMTQALQEQDSAFGA
notes: PML (TRIM19), residues 1-256, double mutant I122P/V123P; See note of m9; source: purified
binding result [4]: binds

B6: PML_(1–256) F158E (domain or fragment, UniProt P29590-1 1-256, looked up)
chain: MEPAPARSPRPQQDPARPQEPTMPPPETPSEGRQPSPSPSPTERAPASEEEFQFLRCQQCQAEAKCPKLLPCLHTLCSGCLEASGMQCPICQAPWPLGADTPALDNVFFESLQRRLSVYRQIVDAQAVCTRCKESADFWCFECEQLLCAKCFEAHQWELKHEARPLAELRNQSVREFLDGTRKTNNIFCSNPNHRTPTLTSIYCRGCSKPLCCSCALLDSSHSELKCDISAEIQQRQEELDAMTQALQEQDSAFGA
notes: PML (TRIM19), residues 1-256, mutant F158E; source: E. coli BL21 (DE3), purified (His-Trap, thrombin, Q, Phenyl, Superdex 200); not shown: SUMO (human), N-terminal, cleaved; His tag, N-terminal, cleaved
binding result [5]: binds

B7: PML_(1–256) W157E (domain or fragment, UniProt P29590-1 1-256, looked up)
chain: MEPAPARSPRPQQDPARPQEPTMPPPETPSEGRQPSPSPSPTERAPASEEEFQFLRCQQCQAEAKCPKLLPCLHTLCSGCLEASGMQCPICQAPWPLGADTPALDNVFFESLQRRLSVYRQIVDAQAVCTRCKESADFWCFECEQLLCAKCFEAHQEFLKHEARPLAELRNQSVREFLDGTRKTNNIFCSNPNHRTPTLTSIYCRGCSKPLCCSCALLDSSHSELKCDISAEIQQRQEELDAMTQALQEQDSAFGA
notes: PML (TRIM19), residues 1-256, mutant W157E; source: E. coli BL21 (DE3), purified (His-Trap, thrombin, Q, Phenyl, Superdex 200); not shown: SUMO (human), N-terminal, cleaved; His tag, N-terminal, cleaved
binding result [5]: binds

From paper PMC6706441, “B1 oligomerization regulates PML nuclear body biogenesis and leukemogenesis” (Nature Communications, 2019)
